Source: US20160271230A1 (UNIVERSITY HEALTH NETWORK, published 2016)
No end group written: not given here.

Experiments:
[1] = molecular target: T1, His-tagged 6FNIII-domain of Neogenin (Gallus gallus, UniProt Q90610 429-1036); assay: complementary plate assay, RGMa peptides fused with AP (FIG. 9)
T1 construct: also called His-6FNIII; His-FNIII; not shown: His tag
T1 sequence: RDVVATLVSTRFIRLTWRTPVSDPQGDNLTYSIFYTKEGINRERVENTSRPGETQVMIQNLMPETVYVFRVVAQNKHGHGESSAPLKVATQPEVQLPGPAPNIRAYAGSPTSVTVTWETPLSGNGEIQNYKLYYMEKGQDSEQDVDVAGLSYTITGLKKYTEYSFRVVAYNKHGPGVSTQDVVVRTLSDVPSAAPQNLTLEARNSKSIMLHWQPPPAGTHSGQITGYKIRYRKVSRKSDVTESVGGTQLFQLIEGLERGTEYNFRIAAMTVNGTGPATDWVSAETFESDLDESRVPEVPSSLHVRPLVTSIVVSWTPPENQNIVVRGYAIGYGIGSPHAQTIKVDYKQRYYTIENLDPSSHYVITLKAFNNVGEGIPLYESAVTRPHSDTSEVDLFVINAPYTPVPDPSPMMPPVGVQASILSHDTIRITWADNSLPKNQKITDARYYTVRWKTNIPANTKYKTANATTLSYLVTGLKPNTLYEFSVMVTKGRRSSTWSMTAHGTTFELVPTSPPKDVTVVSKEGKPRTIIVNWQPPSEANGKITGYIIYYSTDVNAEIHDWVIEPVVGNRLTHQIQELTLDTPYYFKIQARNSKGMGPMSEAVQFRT
Method: (§1) (A) Different RGMa-AP proteins were incubated on wells coated with the 4Ig 6FNIII or BSA. […] Data were average±SEM (n=3 independent experiments), *p<0.005. (B) Quantification of a binding assay where 4Ig-AP and 6FNIII-AP proteins were assayed on wells coated with proteins from different RGMa regions. […] C-RGMa proteins and full length RGMa only bound 6FNIII. Data were average±SEM (n=3 independent experiments), *p<0.005. […] Quantification of a binding assay where N-RGMa-AP was assayed on wells coated with proteins DCC-4Ig and Neogenin-4Ig. In this experiment Neogenin-4Ig but not DCC-4Ig interacted with N-Raft-AP. Data were average±SEM (n=4 independent experiments), *p<0.005. (D) Cis-interaction between the 4Ig domain of Neogenin and N-Raft is required for localization of Neogenin in lipid rafts. HEK-293 cells were transfected with Neogenin and RGMa constructs. BMP2 (100 nM) was added to the medium 1 hour before cells were collected. Western blotting was performed following lipid raft fractionation. Flotillin was used as a marker for lipid raft fractions, whereas the transferrin receptor (TfR) was used as a marker for heavy membrane-fractions. Every experiment was repeated twice. […] In the first set of experiments, cells were only transfected with Neogenin. […]

[2] = molecular target: T2, His-tagged 4Ig-domain of Neogenin (Gallus gallus, UniProt Q90610 1-383); assay: complementary plate assay, RGMa peptides fused with AP on coated Neogenin domains (FIG. 9)
T2 construct: Secreted from transfected cells, purified on Ni-NTA; also called His-4Ig; Neogenin-4Ig; not shown: 6-His tag at the N-terminus; myc and 6-His tags of the pSectag 2B vector at the C-terminus
T2 sequence: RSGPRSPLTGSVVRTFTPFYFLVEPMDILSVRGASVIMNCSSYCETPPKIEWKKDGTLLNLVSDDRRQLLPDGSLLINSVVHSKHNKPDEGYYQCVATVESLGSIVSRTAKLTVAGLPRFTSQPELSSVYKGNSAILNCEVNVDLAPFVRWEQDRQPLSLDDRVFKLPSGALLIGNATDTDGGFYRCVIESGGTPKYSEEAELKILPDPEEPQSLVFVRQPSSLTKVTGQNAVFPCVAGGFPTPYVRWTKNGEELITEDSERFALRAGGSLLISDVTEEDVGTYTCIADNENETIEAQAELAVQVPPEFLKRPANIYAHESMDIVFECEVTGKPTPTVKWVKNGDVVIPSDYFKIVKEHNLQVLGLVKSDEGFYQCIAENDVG
Method: as §1

B1: N-inh fused with alkaline phosphatase (peptide)
chain: GDLAYHSAVHGIDDLMVQHNCSKDGPTSQPRLRTLPP
modifications: also: alkaline phosphatase tag, sequence and position not given here
notes: also called N-inh-AP; not shown: alkaline phosphatase (AP)
binding result [1]: binds | binding result [2]: no binding
